Consider 125 sequences from the supplement of paper PMC9112550, “Optimization of the antimicrobial peptide Bac7 by deep mutational scanning” (BMC Biology, 2022).

The series deals with Escherichia coli TOP10. As to the kind of experiment: shrunken log2 fold change of peptide-encoding DNA abundance (4.5 h post-induction vs induction); higher = less antimicrobial activity (less host growth inhibition). Particulars: time post-induction: 4.5 h; library: site-saturation at positions 5, 18, 19, 20.
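Further: peptides expressed intracellularly from a pBAD plasmid library in pooled LB shake-flask culture, induced with 0.3% L-arabinose, DNA abundance read by NGS, three biological replicates, DESeq2 with apeglm shrinkage.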

Consider RRIRKRPPRLPRPRPRPISEPRP, for which the “shrunken log2 fold change” value was determined as 0.213.
As for RRIRERPPRLPRPRPRPPYTPRP, the “shrunken log2 fold change” value was -0.176.
Turning to RRIRPRPPRLPRPRPRPWGRPRP, the “shrunken log2 fold change” value was 0.122.
Turning to RRIRIRPPRLPRPRPRPHQMPRP, the “shrunken log2 fold change” value came out at 0.0234.
As to RRIRFRPPRLPRPRPRPHNWPRP, the “shrunken log2 fold change” value is -0.122.
With RRIRTRPPRLPRPRPRPEYSPRP the figure was -0.0382; with RRIRSRPPRLPRPRPRPCELPRP, 0.0778.
Take RRIRNRPPRLPRPRPRPRESPRP: the “shrunken log2 fold change” value is -0.0379.
Consider RRIRRRPPRLPRPRPRPYPAPRP, for which the “shrunken log2 fold change” value is 0.0876.
Take RRIRQRPPRLPRPRPRPNTFPRP: the “shrunken log2 fold change” value is -0.666.
In the case of RRIRLRPPRLPRPRPRPEVHPRP, the “shrunken log2 fold change” value was determined as 0.101.
RRIRLRPPRLPRPRPRPEFAPRP: the “shrunken log2 fold change” value was 0.342.
With RRIRYRPPRLPRPRPRPCWEPRP the figure was -0.288.
Take RRIRNRPPRLPRPRPRPWIIPRP: the “shrunken log2 fold change” value is -0.429.
Consider RRIRQRPPRLPRPRPRPSNRPRP, for which the “shrunken log2 fold change” value was -0.158.
Take RRIRFRPPRLPRPRPRPNGEPRP: the “shrunken log2 fold change” value came to 0.0684.
Turning to RRIRARPPRLPRPRPRPFMRPRP, the “shrunken log2 fold change” value turned out to be 0.59.
As to RRIRSRPPRLPRPRPRPEVPPRP, the “shrunken log2 fold change” value came out at 0.0326.
Consider RRIRTRPPRLPRPRPRPKWCPRP, for which the “shrunken log2 fold change” value was 0.00669.
For the sequence RRIRWRPPRLPRPRPRPVRIPRP, the “shrunken log2 fold change” value was -0.0854.
Take RRIRDRPPRLPRPRPRPEEEPRP: the “shrunken log2 fold change” value worked out at 0.00884.
Consider RRIRSRPPRLPRPRPRPQMAPRP, for which the “shrunken log2 fold change” value turned out to be 0.0615.
Consider RRIRLRPPRLPRPRPRPMIQPRP, for which the “shrunken log2 fold change” value was -0.139.
With RRIRCRPPRLPRPRPRPPWCPRP, the “shrunken log2 fold change” value is -0.123.
With RRIRERPPRLPRPRPRPRSIPRP, the “shrunken log2 fold change” value was 0.0163.
Turning to RRIRGRPPRLPRPRPRPYNQPRP, the “shrunken log2 fold change” value was -0.104.
Consider RRIRARPPRLPRPRPRPVLDPRP, for which the “shrunken log2 fold change” value worked out at 0.185.
Take RRIRIRPPRLPRPRPRPQRGPRP: the “shrunken log2 fold change” value was determined as 0.0568.
For RRIRDRPPRLPRPRPRPKCEPRP, the “shrunken log2 fold change” value is -0.351.
On to RRIRYRPPRLPRPRPRPLVIPRP, for which the “shrunken log2 fold change” value was -0.782.
As for RRIRCRPPRLPRPRPRPICTPRP, the “shrunken log2 fold change” value is -0.307.
In the case of RRIRLRPPRLPRPRPRPMPRPRP, the “shrunken log2 fold change” value was found to be 0.291.
For RRIRARPPRLPRPRPRPFCEPRP, the “shrunken log2 fold change” value was found to be 0.303.
Turning to RRIRNRPPRLPRPRPRPKELPRP, the “shrunken log2 fold change” value was determined as 0.0238.
For RRIRWRPPRLPRPRPRPCQMPRP, the “shrunken log2 fold change” value is -0.0107.
In the case of RRIRKRPPRLPRPRPRPCMTPRP, the “shrunken log2 fold change” value was found to be 0.0372.
For RRIRARPPRLPRPRPRPGTKPRP, the “shrunken log2 fold change” value is 0.0261.
Consider RRIRLRPPRLPRPRPRPETHPRP, for which the “shrunken log2 fold change” value came out at 0.161.
RRIRERPPRLPRPRPRPPTRPRP: the “shrunken log2 fold change” value is 0.254.
For RRIRNRPPRLPRPRPRPQEAPRP, the “shrunken log2 fold change” value is -0.0152.
In the case of RRIRYRPPRLPRPRPRPHANPRP, the “shrunken log2 fold change” value is -0.16.
As to RRIRTRPPRLPRPRPRPKDEPRP, the “shrunken log2 fold change” value was -0.0319.
In the case of RRIRGRPPRLPRPRPRPRDKPRP, the “shrunken log2 fold change” value stood at 0.373.
Under RRIRKRPPRLPRPRPRPLYVPRP stands 0.0738; under RRIRSRPPRLPRPRPRPGEDPRP, 0.106.
RRIRHRPPRLPRPRPRPDPNPRP: the “shrunken log2 fold change” value is -0.0239.
Under RRIRERPPRLPRPRPRPCEKPRP stands 0.0102; under RRIRCRPPRLPRPRPRPYYKPRP, -0.992.
As to RRIRKRPPRLPRPRPRPNQHPRP, the “shrunken log2 fold change” value was 0.0449.
In the case of RRIRRRPPRLPRPRPRPYWWPRP, the “shrunken log2 fold change” value was -0.0898.
For RRIRTRPPRLPRPRPRPIAYPRP, the “shrunken log2 fold change” value turned out to be 0.0173.
In the case of RRIRNRPPRLPRPRPRPLDKPRP, the “shrunken log2 fold change” value is -0.186.
Under RRIRTRPPRLPRPRPRPFLVPRP stands -0.404.
As to RRIRTRPPRLPRPRPRPHYLPRP, the “shrunken log2 fold change” value was -0.194.
In the case of RRIRERPPRLPRPRPRPWPGPRP, the “shrunken log2 fold change” value is -0.0345.
With RRIRSRPPRLPRPRPRPYGVPRP the figure was 0.0325.
With RRIRARPPRLPRPRPRPAGPPRP, the “shrunken log2 fold change” value came out at 0.453.
Turning to RRIRIRPPRLPRPRPRPKGRPRP, the “shrunken log2 fold change” value came to 0.182.
Take RRIRSRPPRLPRPRPRPKWVPRP: the “shrunken log2 fold change” value was -0.209.
As for RRIRCRPPRLPRPRPRPKCQPRP, the “shrunken log2 fold change” value is 0.201.
For the sequence RRIRMRPPRLPRPRPRPYGGPRP, the “shrunken log2 fold change” value was -1.22.
For the sequence RRIRARPPRLPRPRPRPHGEPRP, the “shrunken log2 fold change” value is -0.00651.
Turning to RRIRIRPPRLPRPRPRPYDDPRP, the “shrunken log2 fold change” value was -0.0134.
With RRIRERPPRLPRPRPRPRHPPRP, the “shrunken log2 fold change” value is -0.289.
On to RRIRLRPPRLPRPRPRPVHWPRP, for which the “shrunken log2 fold change” value turned out to be 0.4.
With RRIRTRPPRLPRPRPRPNRPPRP the figure was 0.00512; with RRIRSRPPRLPRPRPRPCHYPRP, -0.0214; with RRIRPRPPRLPRPRPRPVVYPRP, -0.538.
With RRIRNRPPRLPRPRPRPGAKPRP the figure was 0.362; with RRIRWRPPRLPRPRPRPEFSPRP, 0.109.
Consider RRIRCRPPRLPRPRPRPLHEPRP, for which the “shrunken log2 fold change” value is -0.23.
With RRIRCRPPRLPRPRPRPRFHPRP, the “shrunken log2 fold change” value was -0.393.
Take RRIRPRPPRLPRPRPRPYADPRP: the “shrunken log2 fold change” value came out at 0.0774.
With RRIRDRPPRLPRPRPRPDKNPRP, the “shrunken log2 fold change” value is -0.224.
Regarding RRIRKRPPRLPRPRPRPLHQPRP, the “shrunken log2 fold change” value was determined as 0.393.
With RRIRTRPPRLPRPRPRPKQNPRP the figure was 0.638; with RRIRHRPPRLPRPRPRPNRSPRP, -0.413.
Under RRIRWRPPRLPRPRPRPWGCPRP stands 0.423; under RRIRGRPPRLPRPRPRPMYKPRP, 0.0271.
As for RRIRDRPPRLPRPRPRPLSHPRP, the “shrunken log2 fold change” value is -0.0109.
Turning to RRIRTRPPRLPRPRPRPVISPRP, the “shrunken log2 fold change” value was -0.21.
As to RRIRRRPPRLPRPRPRPTIVPRP, the “shrunken log2 fold change” value is -0.111.
Regarding RRIRYRPPRLPRPRPRPDEGPRP, the “shrunken log2 fold change” value is -0.226.
As to RRIRWRPPRLPRPRPRPMYWPRP, the “shrunken log2 fold change” value is 0.0085.
In the case of RRIRNRPPRLPRPRPRPGPTPRP, the “shrunken log2 fold change” value was 0.3.
With RRIRFRPPRLPRPRPRPTLVPRP, the “shrunken log2 fold change” value is -0.141.
With RRIRIRPPRLPRPRPRPCNDPRP the figure was -0.0787; with RRIRMRPPRLPRPRPRPGDRPRP, 0.786.
Under RRIRSRPPRLPRPRPRPMDLPRP stands 0.0372; under RRIRVRPPRLPRPRPRPSDSPRP, -0.4; under RRIRLRPPRLPRPRPRPQADPRP, 0.112.
Consider RRIRERPPRLPRPRPRPFGEPRP, for which the “shrunken log2 fold change” value is -0.122.
With RRIRERPPRLPRPRPRPQKCPRP the figure was -0.202; with RRIRKRPPRLPRPRPRPTGCPRP, 0.0439; with RRIRFRPPRLPRPRPRPHGQPRP, -0.0526.
RRIRDRPPRLPRPRPRPQTCPRP: the “shrunken log2 fold change” value came out at 0.0864.
Take RRIRYRPPRLPRPRPRPRTHPRP: the “shrunken log2 fold change” value was -0.318.
Consider RRIRQRPPRLPRPRPRPVAGPRP, for which the “shrunken log2 fold change” value was found to be 0.0467.
As for RRIRYRPPRLPRPRPRPTPNPRP, the “shrunken log2 fold change” value was 0.507.
Consider RRIRIRPPRLPRPRPRPCLMPRP, for which the “shrunken log2 fold change” value is -0.601.
Regarding RRIRDRPPRLPRPRPRPKPKPRP, the “shrunken log2 fold change” value is 0.254.
As to RRIRTRPPRLPRPRPRPHWGPRP, the “shrunken log2 fold change” value is 0.229.
Take RRIRHRPPRLPRPRPRPSHIPRP: the “shrunken log2 fold change” value is -0.307.
In the case of RRIRCRPPRLPRPRPRPWPQPRP, the “shrunken log2 fold change” value was -0.0463.
In the case of RRIRNRPPRLPRPRPRPSYHPRP, the “shrunken log2 fold change” value was -0.273.
As to RRIRIRPPRLPRPRPRPDMAPRP, the “shrunken log2 fold change” value was -0.0603.
As for RRIRNRPPRLPRPRPRPVLYPRP, the “shrunken log2 fold change” value is -0.374.
Consider RRIRCRPPRLPRPRPRPFMWPRP, for which the “shrunken log2 fold change” value is -0.165.
With RRIRGRPPRLPRPRPRPHISPRP the figure was -0.0962; with RRIRQRPPRLPRPRPRPSFIPRP, -0.807.
Under RRIRTRPPRLPRPRPRPPVRPRP stands 0.558.
For the sequence RRIRSRPPRLPRPRPRPNCVPRP, the “shrunken log2 fold change” value stood at 0.0124.
As for RRIRHRPPRLPRPRPRPCNHPRP, the “shrunken log2 fold change” value was -0.292.
Take RRIRCRPPRLPRPRPRPVNWPRP: the “shrunken log2 fold change” value came out at 0.393.
With RRIRYRPPRLPRPRPRPQCRPRP, the “shrunken log2 fold change” value was -0.23.
Regarding RRIRDRPPRLPRPRPRPGQFPRP, the “shrunken log2 fold change” value was -0.166.
Consider RRIRNRPPRLPRPRPRPKWYPRP, for which the “shrunken log2 fold change” value is -0.517.
Under RRIRDRPPRLPRPRPRPVCFPRP stands 0.599.
Turning to RRIRRRPPRLPRPRPRPHYTPRP, the “shrunken log2 fold change” value was -0.313.
RRIRYRPPRLPRPRPRPHFKPRP: the “shrunken log2 fold change” value was -0.346.
As for RRIRLRPPRLPRPRPRPRDHPRP, the “shrunken log2 fold change” value was 0.0215.
On to RRIRKRPPRLPRPRPRPNWNPRP, for which the “shrunken log2 fold change” value is -0.191.
For the sequence RRIRDRPPRLPRPRPRPQSVPRP, the “shrunken log2 fold change” value is -0.0496.
Turning to RRIRFRPPRLPRPRPRPIVTPRP, the “shrunken log2 fold change” value was -0.075.
With RRIRMRPPRLPRPRPRPQVKPRP the figure was -0.0452.
